# Reference: publication PMC7794297
# B1: TrxR 2: recombinant human thioredoxin reductase 2, selenoenzyme (protein, UniProt Q9NNW7 37-524, looked up)
# Thioredoxin reductase 2, …: QRDYDLLVVGGGSGGLACAKEAAQLGRKVAVVDYVEPSPQGTRWGLGGTCVNVGCIPKKLMHQAALLGGLIQDAPNYGWEVAQPVPHDWRKMAEAVQNHVKSLNWGHRVQLQDRKVKYFNIKASFVDEHTVCGVAKGGKEILLSADHIIIATGGRPRYPTHIEGALEYGITSDDIFWLKESPGKTLVVGASYVALECAGFLTGIGLDTTIMMRSIPLRGFDQQMSSMVIEHMASHGTRFLRGCAPSRVRRLPDGQLQVTWEDSTTGKEDTGTFDTVLWAIGRVPDTRSLNLEKAGVDTSPDTQKILVDSREATSVPHIYAIGDVVEGRPELTPIAIMAGRLLVQRLFGGSSDLMDYDNVPTTVFTPLEYGCVGLSEEEAVARHGQEHVEVYHAHYKPLEFTVAGRDASQCYVKMVCLREPPQLVLGLHFLGPNAGEVTQGFALGIKCGASYAQVMRTVGIHPTCSEEVVKLRISKRSGLDPTVTGCUG
molecule,measurement,setting,value
B1,Kobs,"5% (mol) catalyst, 2.5% (v/v) DMSO, 190 μM 3, Tris pH 7.8, 6 °C, uncatalyzed 0.014 ± 0.001",0.035 ± 0.003 M⁻¹ s⁻¹
same,time until total completion of homodimerization,5% mol,5 days
